Legend:
[1] = molecular target: HLA-B*18:01; assay: IEDB peptide-MHC binding, purified MHC/direct/fluorescence; filed as Kd, often an IC50 or EC50 that approximates it; ≥ and ≤ were set here for values at or beyond the usual limits of such assays
[2] = molecular target: HLA-B*40:01; assay: as above
[3] = molecular target: HLA-A*01:01; assay: as above; conditions: source organism: Coxiella burnetii
[4] = molecular target: HLA-A*02:01; assay: as above; conditions: source organism: Coxiella burnetii
[5] = molecular target: HLA-A*03:01; assay: as above; conditions: source organism: Coxiella burnetii
[6] = molecular target: HLA-A*11:01; assay: as above; conditions: source organism: Coxiella burnetii
[7] = molecular target: HLA-A*26:01; assay: as above; conditions: source organism: Coxiella burnetii
[8] = molecular target: HLA-A*31:01; assay: as above; conditions: source organism: Coxiella burnetii
[9] = molecular target: HLA-A*69:01; assay: as above; conditions: source organism: Coxiella burnetii
[10] = molecular target: HLA-B*07:02; assay: as above; conditions: source organism: Coxiella burnetii
[11] = molecular target: HLA-B*08:01; assay: as above; conditions: source organism: Coxiella burnetii
[12] = molecular target: HLA-B*15:01; assay: as above; conditions: source organism: Coxiella burnetii
[13] = molecular target: HLA-B*27:05; assay: as above
[14] = molecular target: HLA-B*44:02; assay: as above; conditions: source organism: Coxiella burnetii
[15] = molecular target: HLA-B*58:01; assay: as above
[16] = molecular target: HLA-A*02:01; assay: IEDB peptide-MHC binding, purified MHC/competitive/fluorescence; filed as Kd, often an IC50 or EC50 that approximates it; ≥ and ≤ were set here for values at or beyond the usual limits of such assays
[17] = molecular target: HLA-A*02:02; assay: IEDB peptide-MHC binding, purified MHC/competitive/radioactivity; filed as Kd, often an IC50 or EC50 that approximates it; ≥ and ≤ were set here for values at or beyond the usual limits of such assays; conditions: source organism: Vaccinia virus WR
[18] = molecular target: HLA-A*02:03; assay: as above; conditions: source organism: Vaccinia virus WR
[19] = molecular target: HLA-A*02:06; assay: as above; conditions: source organism: Vaccinia virus WR
[20] = molecular target: HLA-B*07:02; assay: as above
[21] = molecular target: HLA-B*35:01; assay: as above
[22] = molecular target: HLA-B*51:01; assay: as above
[23] = molecular target: HLA-B*53:01; assay: as above
[24] = molecular target: HLA-B*54:01; assay: as above
[25] = molecular target: HLA-B*48:01; assay: IEDB peptide-MHC binding, purified MHC/direct/fluorescence; filed as Kd, often an IC50 or EC50 that approximates it; ≥ and ≤ were set here for values at or beyond the usual limits of such assays; conditions: source organism: Mammarenavirus lassaense
[26] = molecular target: HLA-A*02:01; assay: IEDB peptide-MHC binding, purified MHC/competitive/radioactivity; filed as Kd, often an IC50 or EC50 that approximates it; ≥ and ≤ were set here for values at or beyond the usual limits of such assays; conditions: source organism: Vaccinia virus WR
[27] = molecular target: HLA-B*57:01; assay: IEDB peptide-MHC binding, purified MHC/direct/fluorescence; filed as Kd, often an IC50 or EC50 that approximates it; ≥ and ≤ were set here for values at or beyond the usual limits of such assays; conditions: source organism: Entamoeba histolytica HM-1:IMSS
[28] = source organism: Mammarenavirus lassaense
[29] = source organism: Coxiella burnetii
[30] = source organism: Triticum aestivum
[31] = source organism: Vaccinia virus WR
[32] = source organism: SARS coronavirus Tor2
[33] = source organism: Dengue virus 2 Jamaica/1409/1983

Which Kd [1, 28] does the source give for PEDPVEIAL here?
The Kd was at least 20000 nM.

What about the Kd [2, 28] of the same sequence?
Its Kd is 160 nM.

PEIRRWIIF was tested. Which Kd [3] did it give?
The Kd was at least 20000 nM.

And the Kd [4]?
Its Kd is at least 20000 nM.

And the Kd [5]?
The Kd was at least 20000 nM.

And the Kd [6]?
The Kd was at least 20000 nM.

What about the Kd [7] of the same sequence?
Its Kd is at least 20000 nM.

And the Kd [8]?
The Kd was at least 20000 nM.

What about the Kd [9] of the same sequence?
Its Kd is at least 20000 nM.

What about the Kd [10] of the same sequence?
The Kd was at least 20000 nM.

And the Kd [11]?
Its Kd is at least 20000 nM.

And the Kd [12]?
Its Kd is at least 20000 nM.

And the Kd [13, 29]?
The Kd was at least 20000 nM.

And the Kd [2, 29]?
Its Kd is 5640 nM.

What about the Kd [14] of the same sequence?
The Kd was at least 20000 nM.

What about the Kd [15, 29] of the same sequence?
Its Kd is at least 20000 nM.

With QIFNIISYI as the sequence, how does the Kd ([16]; source organism: Variola virus) read?
The Kd was 31.1 nM.

And the Kd [17]?
Its Kd is 111 nM.

What about the Kd [18] of the same sequence?
Its Kd is 15.1 nM.

What about the Kd [19] of the same sequence?
Its Kd is 1.78 nM.

Which Kd [20, 30] does the source give for QPSSQVSF here?
The Kd was at least 26200 nM.

What about the Kd [21, 30] of the same sequence?
Its Kd is at least 23900 nM.

And the Kd [22, 30]?
Its Kd is 2960 nM.

And the Kd [23, 30]?
The Kd was at least 38300 nM.

What about the Kd [24, 30] of the same sequence?
The Kd was at least 87700 nM.

Which results are given for RKLLESQGR?
Kd [13, 28]: 451 nM; Kd [25]: ≥ 20000 nM

For RPRFDDAYNI, which Kd [20, 31] is on record?
The Kd was 5.26 nM.

What about the Kd [21, 31] of the same sequence?
The Kd was 15000 nM.

What about the Kd [22, 31] of the same sequence?
The Kd was 3410 nM.

And the Kd [23, 31]?
The Kd was 32.7 nM.

What about the Kd [24, 31] of the same sequence?
The Kd was 2380 nM.

RTCSNWVPL was tested. Which Kd ([16]; source organism: Vaccinia virus Ankara) did it give?
Its Kd is 329 nM.

SMRRNYFTAEV was tested. Which Kd ([16]; source organism: Influenza A virus (A/quail/Hong Kong/SF550/00(H6N1))) did it give?
The Kd was 1330 nM.

With SPLFLIVAA as the sequence, how does the Kd [20, 32] read?
Its Kd is 481 nM.

And the Kd [21, 32]?
The Kd was 1040 nM.

And the Kd [22, 32]?
Its Kd is 12100 nM.

What about the Kd [23, 32] of the same sequence?
The Kd was at least 44700 nM.

And the Kd [24, 32]?
The Kd was 2.52 nM.

How did the Kd [20, 31] turn out when TPEQKAYVPA was run?
The Kd was 1230 nM.

What about the Kd [21, 31] of the same sequence?
The Kd was 11000 nM.

And the Kd [22, 31]?
The Kd was at least 55200 nM.

What about the Kd [23, 31] of the same sequence?
The Kd was at least 45200 nM.

What about the Kd [24, 31] of the same sequence?
Its Kd is 13.3 nM.

With VPEFAKQYVL as the sequence, how does the Kd [20, 31] read?
Its Kd is 25.8 nM.

And the Kd [21, 31]?
Its Kd is 30.7 nM.

What about the Kd [22, 31] of the same sequence?
Its Kd is 1550 nM.

What about the Kd [23, 31] of the same sequence?
The Kd was 85.2 nM.

And the Kd [24, 31]?
The Kd was 1860 nM.

Which Kd ([22]; source organism: Dengue virus 1 Brazil/97-11/1997) does the source give for VPLLALGCY here?
The Kd was 14900 nM.

How did the Kd [20, 33] turn out when VPSIKAGNDI was run?
The Kd was 2130 nM.

What about the Kd [22, 33] of the same sequence?
The Kd was 8470 nM.

What about the Kd [23, 33] of the same sequence?
Its Kd is at least 59800 nM.

WEALDTMYV was tested. Which Kd ([1]; source organism: West Nile virus) did it give?
The Kd was 556 nM.

For WHYDQENPY, which Kd ([21]; source organism: Dengue virus 4 Philippines/H241/1956) is on record?
Its Kd is 1560 nM.

How did the Kd ([16]; source organism: Influenza A virus (A/chicken/Fujian/25/00(H9N2))) turn out when WMMAMRYPITA was run?
The Kd was 1.5 nM.

Which Kd ([22]; source organism: Dengue virus 1 Singapore/S275/1990) does the source give for WPISKMDIGV here?
Its Kd is 10700 nM.

With YHFDPVHHL as the sequence, how does the Kd [3] read?
Its Kd is at least 20000 nM.

And the Kd [4]?
The Kd was at least 20000 nM.

What about the Kd [5] of the same sequence?
The Kd was at least 20000 nM.

What about the Kd [6] of the same sequence?
Its Kd is at least 20000 nM.

What about the Kd [7] of the same sequence?
The Kd was at least 20000 nM.

What about the Kd [8] of the same sequence?
Its Kd is at least 20000 nM.

What about the Kd [9] of the same sequence?
Its Kd is at least 20000 nM.

And the Kd [10]?
The Kd was at least 20000 nM.

And the Kd [11]?
The Kd was at least 20000 nM.

What about the Kd [12] of the same sequence?
Its Kd is at least 20000 nM.

What about the Kd [13, 29] of the same sequence?
Its Kd is at least 20000 nM.

And the Kd [2, 29]?
Its Kd is at least 20000 nM.

And the Kd [14]?
Its Kd is at least 20000 nM.

What about the Kd [15, 29] of the same sequence?
The Kd was at least 20000 nM.

With YLLFASMGFK as the sequence, how does the Kd [26] read?
Its Kd is 2570 nM.

And the Kd [20, 31]?
Its Kd is at least 69600 nM.

And the Kd [21, 31]?
The Kd was at least 69900 nM.

YLRPYMHGY was tested. Which Kd [27] did it give?
Its Kd is 5460 nM.

What about the Kd ([15]; source organism: Entamoeba histolytica HM-1:IMSS) of the same sequence?
Its Kd is 12000 nM.

For YPFYVSPTEM, which Kd [20, 31] is on record?
Its Kd is 2060 nM.

What about the Kd [21, 31] of the same sequence?
The Kd was 6.32 nM.

And the Kd [22, 31]?
Its Kd is 1550 nM.

And the Kd [23, 31]?
Its Kd is 446 nM.

And the Kd [24, 31]?
Its Kd is 82 nM.

Which Kd [20, 30] does the source give for YPQPQLPY here?
The Kd was at least 22600 nM.

And the Kd [21, 30]?
The Kd was 249 nM.

What about the Kd [22, 30] of the same sequence?
Its Kd is 10900 nM.

And the Kd [23, 30]?
The Kd was 1340 nM.

And the Kd [24, 30]?
Its Kd is at least 54500 nM.

From the Immune Epitope Database (IEDB)
